Reference: patent US20230165938A1

Experiments:
Test in all cases: cell-based or functional assay
[1] = target: wildtype human rod opsin (human) (UniProt P08100)
[2] = target: phosphonull Rod opsin 6A mutant (human) (UniProt P08100)
[3] = target: wildtype human rod opsin (human) (UniProt P08100); remark: listed apart in the source

| Response decay (best fit Toff) of the light-driven BRET G protein (Go) activation response in Hek293T cells, arrestin co-expressed without GRK1, relative to RodWT alone (% of RodWT level) [1] | Response decay rate of the BRET G protein activation light response, arrestin and GRK1 both co-expressed with RodWT, relative to RodWT alone [1] | Toff of the BRET G protein activation light response, arrestin and GRK1 both co-expressed with RodWT (RodWT alone 166.16) [1] | Response amplitude (A) of the BRET G protein activation light response, GRK1 only co-expressed with Rod6A (scaling factor A) [2] | Response amplitude (A) of the BRET G protein activation light response, GRK1 (or GRK1+Arr) co-expressed with RodWT (% of RodWT amplitude) [3] | Molecule |
| --- | --- | --- | --- | --- | --- |
| 90 | 2.5 x faster | 65.6 s | – | – | wildtype human visual arrestin (from UniProt P10523 1-405) |
| – | – | – | 0.42 | 25 | human rhodopsin kinase (G protein receptor kinase 1) (enzyme, UniProt Q15835 1-560, looked up) MDFGSLETVVANSAFIAARGSFDGSSSQPSRDKKYLAKLKLPPLSKCESLRDSLSLEFESVCLEQPIGKKLFQQFLQSAEKHLPALELWKDIEDYDTADNDLQPQKAQTILAQYLDPQAKLFCSFLDEGIVAKFKEGPVEIQDGLFQPLLQATLAHLGQAPFQEYLGSLYFLRFLQWKWLEAQPMGEDWFLDFRVLGKGGFGEVSACQMKATGKLYACKKLNKKRLKKRKGYQGAMVEKKILMKVHSRFIVSLAYAFETKADLCLVMTIMNGGDIRYHIYNVNEENPGFPEPRALFYTAQIICGLEHLHQRRIVYRDLKPENVLLDNDGNVRISDLGLAVELLDGQSKTKGYAGTPGFMAPELLQGEEYDFSVDYFALGVTLYEMIAARGPFRARGEKVENKELKHRIISEPVKYPDKFSQASKDFCEALLEKDPEKRLGFRDETCDKLRAHPLFKDLNWRQLEAGMLMPPFIPDSKTVYAKDIQDVGAFSTVKGVAFDKTDTEFFQEFATGNCPIPWQEEMIETGIFGELNVWRSDGQMPDDMKGISGGSSSSSKSGMC |
